Molecular target: TNFα (tumor necrosis factor alpha) (UniProt P01375 P01375:77-233)
Assay: antibody-capture / aptamer-detection sandwich in ELISA wells, 5 nM aptamer, eluted at 95 C and counted by digital PCR; PBS, 0.05% Tween-20, 2.5 mM MgCl2, 1 mM CaCl2 wash; no numerical result in text
Settings: tags: Shenandoah Biotechnology 100-111; chain copies: 3 (inferred)
Procedure: The ELISA wells (Thermo Scientific, Catalog #: 15031) were functionalized with a TNFα antibody (eBioscience, Catalog #: 14-7349-85) at 5 μg/ml in PBS overnight at 4° C. Right before use, the ELISA wells were blocked with 300 μL AptaBuffer (PBS+0.05% Tween-20+2.5 mM MgCl₂+1 mM CaCl₂+1% BSA+0.5 mg/mL Dextran Sulfate+0.1 mg/mL Salmon Sperm DNA) with gentle shaking at ˜500 RPM for at least 30 minutes.
Next, test samples (50 μL) containing the protein of interest (TNFα, Shenandoah Biotechnology, Catalog #: 100-111) were added to the washed ELISA wells and incubated for 1 hour with gentle shaking After the target-capture incubation, the ELISA wells were washed once with PBSMCT (PBS+0.05% Tween-20+2.5 mM MgCl₂+1 mM CaCl₂) and 5 nM of the detection TNFα aptamer was added to the wells and incubated for 30 minutes with gentle shaking. The ELISA plate was then washed 4 times with 300 μl of PBS-MCT after the incubation with the detection aptamer. In an embodiment, the sequence of TNFα aptamer is 5′-[…] […]-3′.
For the elution step, 100 μL of PCR grade water was added to each ELISA well. After heating the plate at 95° C. for 10 minutes, we transfer the 100 μL of eluent containing the detection aptamers into a new tube. The eluents are diluted 10 fold before they are measured by the QuantStudio® 3D Digital PCR System from Life Technologies.

TNFα (tumor necrosis factor alpha), sequence (P01375 77-233, one chain of several): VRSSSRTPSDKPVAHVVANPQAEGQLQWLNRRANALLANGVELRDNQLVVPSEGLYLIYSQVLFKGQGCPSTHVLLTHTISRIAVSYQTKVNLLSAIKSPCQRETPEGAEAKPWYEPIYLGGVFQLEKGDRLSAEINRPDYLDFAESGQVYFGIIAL

B1: TNFα detection aptamer (ssDNA)
DNA: ATCCAGAGTGACGCAGCATGCTTAAGGGGGGGGCGGGTTAAGGGAGTGGGGAGGGAGCTGGTGTGGACACGGTGGCTTAGT
- binding result: binds

— patent US20160312265, “USE OF NUCLEIC ACID AGENTS FOR ULTRA-SENSITIVE DIGITAL DETECTION AND QUANTIFICATION OF TARGET MOLECULES” (Aptitude Medical Systems, Inc., published 2016)
